Measured values reported in the supplement of paper PMC9233669.
Fewer inactive variants are shown than the library holds.

Assays:
biotinyl-Phe-oxazolone = experiment: self-aminoacylation, catalytic enhancement (BFO) (fold over background); higher = more active; k-Seq, kA / k0A0; sequences stand for … in GGGAAUGGAUCCACAUCUACGAAUUC…UUCACUGCAGACUUGACGAAGCUG
How it was run: (§1)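 Mutagenized RNA pools (0.43 μM; 21-nt variable region) were treated with 2–1250 μM of each biotinyl-aminoacyl-oxazolone. Conditions were 50 μL HEPES/NaCl/KCl/MgCl2/CaCl2 buffer, 5% acetonitrile, pH 6.9–7.0, room temperature, 90 minutes. Catalytic enhancement, the median kA relative to the uncatalyzed rate, was derived from streptavidin capture, qPCR and Illumina sequencing.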

biotinyl-Ile-oxazolone = experiment: self-aminoacylation, catalytic enhancement (BIO) (fold over background); higher = more active; k-Seq, kA / k0A0; sequences stand for … in GGGAAUGGAUCCACAUCUACGAAUUC…UUCACUGCAGACUUGACGAAGCUG
How it was run: as §1

biotinyl-Met-oxazolone = experiment: self-aminoacylation, catalytic enhancement (BMO) (fold over background); higher = more active; k-Seq, kA / k0A0; sequences stand for … in GGGAAUGGAUCCACAUCUACGAAUUC…UUCACUGCAGACUUGACGAAGCUG
How it was run: as §1

biotinyl-Val-oxazolone = experiment: self-aminoacylation, catalytic enhancement (BVO) (fold over background); higher = more active; k-Seq, kA / k0A0; sequences stand for … in GGGAAUGGAUCCACAUCUACGAAUUC…UUCACUGCAGACUUGACGAAGCUG
How it was run: as §1

biotinyl-Leu-oxazolone = experiment: self-aminoacylation, catalytic enhancement (BLO) (fold over background); higher = more active; k-Seq, kA / k0A0; sequences stand for … in GGGAAUGGAUCCACAUCUACGAAUUC…UUCACUGCAGACUUGACGAAGCUG
How it was run: as §1

biotinyl-Trp-oxazolone = experiment: self-aminoacylation, catalytic enhancement (BWO) (fold over background); higher = more active; k-Seq, kA / k0A0; sequences stand for … in GGGAAUGGAUCCACAUCUACGAAUUC…UUCACUGCAGACUUGACGAAGCUG
How it was run: as §1

Row | Sequence | self-aminoacylation (biotinyl-Phe-oxazolone) | self-aminoacylation (biotinyl-Ile-oxazolone) | self-aminoacylation (biotinyl-Met-oxazolone) | self-aminoacylation (biotinyl-Val-oxazolone) | self-aminoacylation (biotinyl-Leu-oxazolone) | self-aminoacylation (biotinyl-Trp-oxazolone)
1 | CCACACUUCAUGCAAUCUGUC [Fam1B.1 aminoacylation ribozyme variant] | 0.605 | 0.454 | 0.391 | 0.479 | 0.35 | 0.277
2 | CCACACUUCAUGCAAUUGGUC [Fam1B.1 aminoacylation ribozyme variant] | 0.619 | 0.658 | 0.764 | 0.791 | 0.627 | 0.43
3 | CCACACUUCAUGCCAUCGGUC [Fam1B.1 aminoacylation ribozyme variant] | 0.488 | 0.957 | 0.691 | 1.1 | 0.921 | 1.59
4 | CCACACUUCAUGCUAUCGGUC [Fam1B.1 aminoacylation ribozyme variant] | 0.838 | 0.834 | 0.626 | 0.931 | 0.69 | 0.714
5 | CCACACUUCCACCAAUCGGUC [Fam1B.1 aminoacylation ribozyme variant] | 0.478 | 0.908 | 0.51 | 0.962 | 0.643 | 0.847
6 | CCACACUUCCAGCAUUCGGUC [Fam1B.1 aminoacylation ribozyme variant] | 1.12 | 2.48 | 2.05 | 2.81 | 2.42 | 2.58
7 | CCACACUUCCAGCGAUCGGUC [Fam1B.1 aminoacylation ribozyme variant] | 1.52 | 1.78 | 1.68 | 1.97 | 1.51 | 1.46
8 | CCACACUUCGAACAAUCGGUC [Fam1B.1 aminoacylation ribozyme variant] | 1.11 | 0.833 | 0.98 | 0.957 | 0.862 | 0.84
9 | CCACACUUCGAGAAAUCGGUC [Fam1B.1 aminoacylation ribozyme variant] | 0.511 | 0.951 | 1.18 | 0.976 | 1.12 | 0.812
10 | CCACACUUCGAGCAAUCGCUC [Fam1B.1 aminoacylation ribozyme variant] | 5.11 | 1.98 | 2.13 | 2.62 | 1.71 | 2.71
11 | CCACACUUCGAGCAAUCGUUC [Fam1B.1 aminoacylation ribozyme variant] | 0.683 | 0.516 | 0.412 | 0.569 | 0.493 | 0.469
12 | CCACACUUCUAGCAAUCGCUC [Fam1B.1 aminoacylation ribozyme variant] | 1.02 | 1.11 | 0.72 | 1.04 | 0.829 | 0.453
13 | CCACACUUCUAGCAAUCGUUC [Fam1B.1 aminoacylation ribozyme variant] | 1.04 | 0.767 | 0.511 | 1.01 | 0.558 | 0.481
14 | CCACACUUCUCGCAAUCGGUC [Fam1B.1 aminoacylation ribozyme variant] | 0.867 | 1.06 | 0.889 | 1.09 | 1.04 | 0.888
15 | CCACACUUGAAGCAAUCGCUC [Fam1B.1 aminoacylation ribozyme variant] | 0.891 | 1.36 | 1.3 | 1.59 | 1.52 | 1.31
16 | CCACACUUGAAGCAAUCGGAC [Fam1B.1 aminoacylation ribozyme variant] | 0.658 | 0.951 | 0.961 | 1.18 | 0.869 | 0.769
17 | CCACACUUGAAGCAAUCGGUG [Fam1B.1 aminoacylation ribozyme variant] | 19.1 | 2.21 | 3.04 | 2.39 | 4.29 | 3.48
18 | CCACACUUGAAGCAAUCGGUU [Fam1B.1 aminoacylation ribozyme variant] | 0.703 | 1.18 | 1.32 | 1.45 | 1.14 | 2.47
19 | CCACACUUGAAGCAAUGGGUC [Fam1B.1 aminoacylation ribozyme variant] | 1.26 | 0.99 | 0.696 | 0.811 | 0.739 | 0.833
20 | CCACACUUGCAGCAAUCGGUC [Fam1B.1 aminoacylation ribozyme variant] | 1.07 | 1.63 | 1.2 | 1.64 | 1.33 | 1.23
21 | CCACACUUUAAGCAAUCGGUG [Fam1B.1 aminoacylation ribozyme variant] | 22.9 | 2.93 | 3.89 | 2.38 | 5.4 | 3.9
22 | CCACACUUUAAGCAGUCGGUC [Fam1B.1 aminoacylation ribozyme variant] | 1.16 | 0.858 | 0.755 | 0.946 | 0.926 | 0.623
23 | CCACACUUUAAGCCAUCGGUC [Fam1B.1 aminoacylation ribozyme variant] | 0.541 | 0.964 | 0.743 | 0.879 | 0.755 | 0.783
24 | CCACACUUUAGGCAAUCGGUC [Fam1B.1 aminoacylation ribozyme variant] | 0.648 | 1.12 | 0.96 | 1.01 | 0.831 | 0.713
25 | CCACACUUUUAGCAAUCGGUC [Fam1B.1 aminoacylation ribozyme variant] | 0.974 | 0.874 | 0.767 | 0.942 | 0.845 | 0.678
26 | CCACAGCUCAAGCAAUCGGUC [Fam1B.1 aminoacylation ribozyme variant] | 3.21 | 1.18 | 1.05 | 1.29 | 1.16 | 2.35

Row | Sequence | self-aminoacylation (biotinyl-Phe-oxazolone) | self-aminoacylation (biotinyl-Ile-oxazolone) | self-aminoacylation (biotinyl-Met-oxazolone) | self-aminoacylation (biotinyl-Val-oxazolone) | self-aminoacylation (biotinyl-Leu-oxazolone) | self-aminoacylation (biotinyl-Trp-oxazolone)
27 | CCACAGUUAAAGCAAUCGGUC [Fam1B.1 aminoacylation ribozyme variant] | 0.915 | 0.832 | 0.836 | 0.98 | 0.963 | 0.869
28 | CCACAGUUCAAGCAAUCGGCC [Fam1B.1 aminoacylation ribozyme variant] | 0.924 | 2.11 | 2.66 | 3.95 | 2.6 | 3.18
29 | CCACAGUUCAAGCAUUCGGUC [Fam1B.1 aminoacylation ribozyme variant] | 1.61 | 1.88 | 1.84 | 2.33 | 2.04 | 1.86
30 | CCACAGUUUAAGCAAUCGGUC [Fam1B.1 aminoacylation ribozyme variant] | 0.825 | 0.82 | 0.857 | 0.758 | 0.786 | 0.708
31 | CCACAUGUCAAGCAAUCGGUC [Fam1B.1 aminoacylation ribozyme variant] | 1.08 | 1.22 | 1.13 | 1.33 | 1.27 | 0.915
32 | CCACAUUUCAAGCAGUCGGUC [Fam1B.1 aminoacylation ribozyme variant] | 0.868 | 1.15 | 0.9 | 1.15 | 0.899 | 0.803
33 | CCACAUUUCAAUCAAUCGGUC [Fam1B.1 aminoacylation ribozyme variant] | 12.7 | 1.14 | 1.09 | 1.14 | 1.07 | 6.51
34 | CCACCAUUCAAGCAAUCGGUC [Fam1B.1 aminoacylation ribozyme variant] | 1.89 | 1.16 | 0.934 | 1.3 | 0.958 | 1.4
35 | CCACCCAUCAAGCAAUCGGUC [Fam1B.1 aminoacylation ribozyme variant] | 0.916 | 1.06 | 0.85 | 1.07 | 0.876 | 0.951
36 | CCACCCUUCAAGCAAUCGGUG [Fam1B.1 aminoacylation ribozyme variant] | 63.7 | 4.86 | 7.37 | 4.61 | 10.2 | 6.85
37 | CCACCCUUCAAGCAAUCGGUU [Fam1B.1 aminoacylation ribozyme variant] | 2.79 | 1.47 | 1.42 | 1.67 | 1.91 | 4.11
38 | CCACCCUUCAAGCAAUUGGUC [Fam1B.1 aminoacylation ribozyme variant] | 1.33 | 0.814 | 0.907 | 0.984 | 0.814 | 1.04
39 | CCACCCUUCCAGCAAUCGGUC [Fam1B.1 aminoacylation ribozyme variant] | 1.15 | 1.41 | 1.02 | 1.94 | 1.04 | 1.51
40 | CCACGCUUCAAGCAAUCGCUC [Fam1B.1 aminoacylation ribozyme variant] | 0.605 | 0.955 | 0.927 | 1.42 | 0.929 | 1.13
41 | CCACGCUUCAAGCAAUCGGGC [Fam1B.1 aminoacylation ribozyme variant] | 1.35 | 1.08 | 1.25 | 2.04 | 0.924 | 1.41
42 | CCACGCUUCAAGCAAUCGGUA [Fam1B.1 aminoacylation ribozyme variant] | 1.37 | 0.724 | 0.873 | 1.14 | 0.943 | 1.13
43 | CCACGCUUCAAGCAUUCGGUC [Fam1B.1 aminoacylation ribozyme variant] | 0.774 | 1.24 | 1.06 | 1.93 | 1.11 | 1.31
44 | CCACGCUUCAAGGAAUCGGUC [Fam1B.1 aminoacylation ribozyme variant] | 11.6 | 1.11 | 1.22 | 1.1 | 1.19 | 11
45 | CCACGCUUCAAUCAAUCGGUC [Fam1B.1 aminoacylation ribozyme variant] | 30.8 | 1.01 | 0.865 | 1.18 | 1.34 | 20
46 | CCACGCUUCACGCAAUCGGUC [Fam1B.1 aminoacylation ribozyme variant] | 0.964 | 1.15 | 1.4 | 1.82 | 1.09 | 1.95
47 | CCACGCUUCCAGCAAUCGGUC [Fam1B.1 aminoacylation ribozyme variant] | 0.836 | 1.11 | 0.936 | 1.11 | 1.05 | 1.12
48 | CCACGCUUGAAGCAAUCGGUC [Fam1B.1 aminoacylation ribozyme variant] | 0.547 | 0.895 | 0.861 | 1.28 | 0.714 | 1.01
49 | CCACUCAUCAAGCAAUCGGUC [Fam1B.1 aminoacylation ribozyme variant] | 0.817 | 0.977 | 0.73 | 0.971 | 0.997 | 0.731
50 | CCACUCUUCAAGCAAUCGUUC [Fam1B.1 aminoacylation ribozyme variant] | 1.06 | 0.87 | 0.915 | 0.857 | 0.724 | 0.68
51 | CCACUUCAAACAAUCGGUCUG [Fam1A.1 aminoacylation ribozyme variant] | 114 | 1.51 | 1.76 | 1.63 | 2.75 | 49.3
